This assay concerns the target T细胞表面未知蛋白 (unknown protein on the surface of CD3+ T cells). Description: cell-based or functional assay.

Consider one substance from patent CN116082503A.

Take “IGSF9-ECD-His (带有His标签的人IGSF9胞外区蛋白) (receptor)”: the T细胞增殖抑制, 剂量依赖 (dose at which inhibition of T cell proliferation becomes evident) was greater than 0.5 µg.
